# Source: patent publication US20160264649A1
# B1: PGT-125 (antibody, V domains shown)
# VH: QSQLQESGPRLVEASETLSLTCNVSGESTGACTYFWGWVRQAPGKGLEWIGSLSHCQSFWGSGWTFHNPSLKSRLTISLDTPKNQVFLKLTSLTAADTATYYCARFDGEVLVYNHWPKPAWVDLWGRGIPVTVSS
# VL: QSALTQPPSASGSPGQSITISCNGTATNFVSWYQQFPDKAPKLIIFGVDKRPPGVPDRFSGSRSGTTASLTVSRLQTDDEAVYYCGSLVGNWDVIFGGGTTLTVL
# Experiments:
# Experiment in all cases: cell-based or functional assay
# [1] = biological target: HIV-1 Env of isolate MGRM-D-020 (subtype D) (HIV-1)
# [2] = biological target: HIV-1 Env of isolate MGRM-D-005 (subtype D) (HIV-1)
# [3] = biological target: HIV-1 Env of isolate MGRM-F1-023 (subtype F) (HIV-1)
# [4] = biological target: HIV-1 Env of isolate MGRM-F1-017 (subtype F) (HIV-1)
# [5] = biological target: HIV-1 Env of isolate 92UG114 (subtype D) (HIV-1)
# [6] = biological target: HIV-1 Env of isolate 98CN006 (subtype CRF08_BC) (HIV-1)
# [7] = biological target: HIV-1 Env of isolate MGRM-D-002 (subtype D) (HIV-1)
# [8] = biological target: HIV-1 Env of isolate 92UG024 (subtype D) (HIV-1)
# [9] = biological target: HIV-1 Env of isolate MGRM-D-029 (subtype D) (HIV-1)
# [10] = biological target: HIV-1 Env of pseudovirus isolate MGRM-G-004 (subtype G) (HIV-1)
# [11] = biological target: HIV-1 Env of isolate MGRM-F1-014 (subtype F) (HIV-1)
# [12] = biological target: HIV-1 Env of isolate MGRM-F1-016 (subtype F) (HIV-1)
# [13] = biological target: HIV-1 Env of isolate MGRM-D-013 (subtype D) (HIV-1)
# [14] = biological target: HIV-1 Env of pseudovirus isolate MGRM-G-014 (subtype G) (HIV-1)
# [15] = biological target: HIV-1 Env of pseudovirus isolate MGRM-G-013 (subtype G) (HIV-1)
# [16] = biological target: HIV-1 Env of isolate MGRM-D-018 (subtype D) (HIV-1)
# [17] = biological target: HIV-1 Env of isolate 92UG046 (subtype D) (HIV-1)
# [18] = biological target: HIV-1 Env of isolate MGRM-F1-013 (subtype F) (HIV-1)
# [19] = biological target: HIV-1 Env of pseudovirus isolate MGRM-G-006 (subtype G) (HIV-1)
# [20] = biological target: HIV-1 Env of isolate MGRM-D-012 (subtype D) (HIV-1)
# [21] = biological target: HIV-1 Env of isolate MGRM-D-019 (subtype D) (HIV-1)
# [22] = biological target: HIV-1 Env of pseudovirus isolate MGRM-G-015 (subtype G) (HIV-1)
# [23] = biological target: HIV-1 Env of isolate MGRM-D-014 (subtype D) (HIV-1)
# [24] = biological target: HIV-1 Env of pseudovirus isolate MGRM-G-016 (subtype G) (HIV-1)
# [25] = biological target: HIV-1 Env of isolate MGRM-F1-006 (subtype F) (HIV-1)
# [26] = biological target: HIV-1 Env of isolate MGRM-D-026 (subtype D) (HIV-1)
# [27] = biological target: HIV-1 Env of isolate MGRM-F1-010 (subtype F) (HIV-1)
# [28] = biological target: HIV-1 Env of isolate MGRM-F1-004 (subtype F) (HIV-1)
# [29] = biological target: HIV-1 Env of isolate MGRM-D-011 (subtype D) (HIV-1)
# [30] = biological target: HIV-1 Env of isolate MGRM-D-021 (subtype D) (HIV-1)
# [31] = biological target: HIV-1 Env of pseudovirus isolate MGRM-G-017 (subtype G) (HIV-1)
# [32] = biological target: HIV-1 Env of pseudovirus isolate MGRM-G-019 (subtype G) (HIV-1)
# [33] = biological target: HIV-1 Env of isolate MGRM-D-022 (subtype D) (HIV-1)
# [34] = biological target: envelope of aMLV pseudovirus (negative control)
# [35] = biological target: HIV-1 Env of isolate MGRM-F1-008 (subtype F) (HIV-1)
# [36] = biological target: HIV-1 Env of isolate 92UG001 (subtype D) (HIV-1)
# [37] = biological target: HIV-1 Env of isolate MGRM-F1-018 (subtype F) (HIV-1)
# [38] = biological target: HIV-1 Env of isolate MGRM-F1-015 (subtype F) (HIV-1)
# [39] = biological target: HIV-1 Env of isolate MGRM-D-024 (subtype D) (HIV-1)
# [40] = biological target: HIV-1 Env of pseudovirus isolate MGRM-G-009 (subtype G) (HIV-1)
# [41] = biological target: HIV-1 Env of isolate MGRM-D-028 (subtype D) (HIV-1)
# [42] = biological target: HIV-1 Env of isolate MGRM-F1-021 (subtype F) (HIV-1)
# [43] = biological target: HIV-1 Env of isolate MGRM-D-008 (subtype D) (HIV-1)
# [44] = biological target: HIV-1 Env of isolate 98CN009 (subtype CRF07_BC) (HIV-1)
# [45] = biological target: HIV-1 Env of isolate MGRM-F1-012 (subtype F) (HIV-1)
# [46] = biological target: HIV-1 Env of isolate MGRM-D-001 (subtype D) (HIV-1)
# [47] = biological target: HIV-1 Env of pseudovirus isolate MGRM-G-028 (subtype G) (HIV-1)
# [48] = biological target: HIV-1 Env of pseudovirus isolate MGRM-G-011 (subtype G) (HIV-1)
# [49] = biological target: HIV-1 Env of pseudovirus isolate MGRM-G-001 (subtype G) (HIV-1)
# [50] = biological target: HIV-1 Env of pseudovirus isolate MGRM-G-024 (subtype G) (HIV-1)
# [51] = biological target: HIV-1 Env of isolate MGRM-D-003 (subtype D) (HIV-1)
# [52] = biological target: HIV-1 Env of isolate MGRM-D-004 (subtype D) (HIV-1)
# [53] = biological target: HIV-1 Env of isolate MGRM-D-016 (subtype D) (HIV-1)
# [54] = biological target: HIV-1 Env of isolate MGRM-F1-022 (subtype F) (HIV-1)
# [55] = biological target: HIV-1 Env of pseudovirus isolate MGRM-G-027 (subtype G) (HIV-1)
# [56] = biological target: HIV-1 Env of pseudovirus isolate MGRM-G-025 (subtype G) (HIV-1)
# [57] = biological target: HIV-1 Env of isolate MGRM-F1-020 (subtype F) (HIV-1)
# [58] = biological target: HIV-1 Env of isolate 92UG005 (subtype D) (HIV-1)
binder,measurement,setting,value
B1,IC50 (neutralization),[1],0.015 µg/mL
same,IC50 (neutralization),[2],> 50 µg/mL
same,IC50 (neutralization),[3],0.012 µg/mL
same,IC50 (neutralization),[4],> 50 µg/mL
same,IC50 (neutralization),[5],0.349 µg/mL
same,IC50 (neutralization),[6],0.201 µg/mL
same,IC50 (neutralization),[7],0.118 µg/mL
same,IC50 (neutralization),[8],> 50 µg/mL
same,IC50 (neutralization),[9],> 50 µg/mL
same,IC50,[10],> 50 µg/mL
same,IC50 (neutralization),[11],> 50 µg/mL
same,IC50 (neutralization),[12],> 50 µg/mL
same,IC50 (neutralization),[13],> 50 µg/mL
same,IC50,[14],0.007 µg/mL
same,IC50,[15],> 50 µg/mL
same,IC50 (neutralization),[16],0.049 µg/mL
same,IC50 (neutralization),[17],> 50 µg/mL
same,IC50 (neutralization),[18],> 50 µg/mL
same,IC50,[19],> 50 µg/mL
same,IC50 (neutralization),[20],> 50 µg/mL
same,IC50 (neutralization),[21],> 50 µg/mL
same,IC50,[22],> 50 µg/mL
same,IC50 (neutralization),[23],0.12 µg/mL
same,IC50,[24],> 50 µg/mL
same,IC50 (neutralization),[25],0.361 µg/mL
same,IC50 (neutralization),[26],> 50 µg/mL
same,IC50 (neutralization),[27],> 50 µg/mL
same,IC50 (neutralization),[28],0.035 µg/mL
same,IC50 (neutralization),[29],0.008 µg/mL
same,IC50 (neutralization),[30],0.04 µg/mL
same,IC50,[31],> 50 µg/mL
same,IC50,[32],> 50 µg/mL
same,IC50 (neutralization),[33],> 50 µg/mL
same,IC50,[34],> 50 µg/mL
same,IC50 (neutralization),[35],> 50 µg/mL
same,IC50 (neutralization),[36],> 50 µg/mL
same,IC50 (neutralization),[37],> 50 µg/mL
same,IC50 (neutralization),[38],> 50 µg/mL
same,IC50 (neutralization),[39],> 50 µg/mL
same,IC50,[40],> 50 µg/mL
same,IC50 (neutralization),[41],> 50 µg/mL
same,IC50 (neutralization),[42],> 50 µg/mL
same,IC50 (neutralization),[43],> 50 µg/mL
same,IC50 (neutralization),[44],0.03 µg/mL
same,IC50 (neutralization),[45],> 50 µg/mL
same,IC50 (neutralization),[46],2.84 µg/mL
same,IC50,[47],0.012 µg/mL
same,IC50,[48],> 50 µg/mL
same,IC50,[49],0.033 µg/mL
same,IC50,[50],> 50 µg/mL
same,IC50 (neutralization),[51],0.065 µg/mL
same,IC50 (neutralization),[52],0.371 µg/mL
same,IC50 (neutralization),[53],> 50 µg/mL
same,IC50 (neutralization),[54],> 50 µg/mL
same,IC50,[55],34.4 µg/mL
same,IC50,[56],> 50 µg/mL
same,IC50 (neutralization),[57],> 50 µg/mL
same,IC50 (neutralization),[58],> 50 µg/mL
